Experimental findings from paper PMC2920127 (Nature structural & molecular biology, 2010) are described below.

For the assay, the target named is recombinant full-length His-tagged human PABPC1 (human, UniProt P11940 1-636). The assay is described as follows: pull-down.
Sequence of recombinant full-length His-tagged human PABPC1 (P11940 whole entry): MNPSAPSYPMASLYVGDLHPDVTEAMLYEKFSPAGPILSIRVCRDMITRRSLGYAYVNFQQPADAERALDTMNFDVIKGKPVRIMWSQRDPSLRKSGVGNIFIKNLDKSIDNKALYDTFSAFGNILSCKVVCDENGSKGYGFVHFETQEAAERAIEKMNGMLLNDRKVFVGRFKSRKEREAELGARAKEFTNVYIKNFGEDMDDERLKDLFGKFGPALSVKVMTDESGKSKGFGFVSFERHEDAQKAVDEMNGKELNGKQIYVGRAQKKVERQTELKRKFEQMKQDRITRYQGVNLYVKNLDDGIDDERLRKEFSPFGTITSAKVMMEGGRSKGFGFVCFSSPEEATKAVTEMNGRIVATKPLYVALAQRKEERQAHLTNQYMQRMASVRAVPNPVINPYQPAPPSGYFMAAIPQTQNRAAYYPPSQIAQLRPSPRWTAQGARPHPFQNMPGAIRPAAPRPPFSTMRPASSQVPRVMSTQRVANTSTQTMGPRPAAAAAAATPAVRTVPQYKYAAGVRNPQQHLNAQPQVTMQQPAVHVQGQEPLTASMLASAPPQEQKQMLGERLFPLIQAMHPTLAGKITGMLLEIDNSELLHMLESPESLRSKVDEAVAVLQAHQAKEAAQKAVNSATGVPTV

B1: GST-fused TNRC6C fragment 1242-1601 (domain or fragment, human, UniProt Q9HCJ0-1 1242-1601, looked up)
chain: PQTPGLPDLQTKEQQSSPNTFAPYPLAGLNPNMNVNSMDMTGGLSVKDPSQSQSRLPQWTHPNSMDNLPSAASPLEQNPSKHGAIPGGLSIGPPGKSSIDDSYGRYDLIQNSESPASPPVAVPHSWSRAKSDSDKISNGSSINWPPEFHPGVPWKGLQNIDPENDPDVTPGSVPTGPTINTTIQDVNRYLLKSGGKLSDIKSTWSSGPTSHTQASLSHELWKVPRNSTAPTRPPPGLTNPKPSSTWGASPLGWTSSYSSGSAWSTDTSGRTSSWLVLRNLTPQIDGSTLRTLCLQHGPLITFHLNLTQGNAVVRYSSKEEAAKAQKSLHMCVLGNTTILAEFAGEEEVNRFLAQGQALPP
For B1, the binding result is given as “binds”.

B2: GST-fused TNRC6C fragment 1364-1601 (domain or fragment, human, UniProt Q9HCJ0-1 1364-1601, looked up)
chain: PHSWSRAKSDSDKISNGSSINWPPEFHPGVPWKGLQNIDPENDPDVTPGSVPTGPTINTTIQDVNRYLLKSGGKLSDIKSTWSSGPTSHTQASLSHELWKVPRNSTAPTRPPPGLTNPKPSSTWGASPLGWTSSYSSGSAWSTDTSGRTSSWLVLRNLTPQIDGSTLRTLCLQHGPLITFHLNLTQGNAVVRYSSKEEAAKAQKSLHMCVLGNTTILAEFAGEEEVNRFLAQGQALPP
Take B2: the binding result is listed as “binds”.
